From article PMC6200312, “A Single Tim Translocase in the Mitosomes of Giardia intestinalis Illustrates Convergence of Protein Import Machines in Anaerobic Eukaryotes” (Genome Biology and Evolution, 2018) come the findings set out here.

For data set [1], the target named is GiTim17 synthesized in vitro (PURExpress) in lecithin liposomes (Giardia intestinalis). In words: native gel or EMSA; 35S-labelled GiTim17 translated in vitro with lecithin liposomes; pellet washed with 2 M urea in 50 mM sodium phosphate pH 8; Blue Native PAGE with 2% digitonin, 4-16% Bis-Tris gel.
Data set [2] concerns the molecule itself. Description: non-reducing SDS-PAGE; GiTim17 in vivo in Giardia; ~40 kDa complex on nonreducing SDS-PAGE, no reducing agent.

Turning to “GiTim17 synthesized in vitro (PURExpress) in lecithin liposomes (natural protein)”, the stoichiometry N in data set [1] came to 2.

B1: Giardia intestinalis Tim17 protein (GiTim17), in vivo in Giardia (natural protein, UniProt D3KGG5 1-180, looked up)
chain: MLRLWQEYVQEDDVLACLSVLDEDCQRAVQVIERLDVEGGTPEMQTHERVCTSFSHGLIRTALRRFPLALSKNLGRVQSMLNAFNHALQETSTESFSHAISSSCGSLVSSLCNNPSAGAAMGALPNLRKSPGAALSALLMGPTIAHLVGSVYSLGLNAYHICKLELRDLRLHRAEMDKKA
notes: Tim17 family protein of Giardia intestinalis, GL50803_10452, a protein of 180 amino acids, predicted mass 19.4 kDa; also called GL50803_10452
Regarding B1, in data set [2], the “stoichiometry N” value was around 2.
